The record followed here is US20130084301A1.

CD81, sequence (P60033 whole entry): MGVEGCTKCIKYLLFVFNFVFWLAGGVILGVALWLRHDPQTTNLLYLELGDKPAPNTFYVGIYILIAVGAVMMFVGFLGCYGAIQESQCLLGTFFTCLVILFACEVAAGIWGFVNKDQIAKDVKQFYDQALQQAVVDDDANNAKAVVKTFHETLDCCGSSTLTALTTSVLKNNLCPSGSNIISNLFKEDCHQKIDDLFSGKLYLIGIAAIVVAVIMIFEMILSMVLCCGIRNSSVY

For one assay, the target named is HCV E2 glycoprotein, genotype 1a (H77c) (hepatitis C virus genotype 1a, H77c) (UniProt P27958).
Assay: not given
CBH-5 (antibody) yielded a % reduction of E2 binding to CD81 greater than 90%.

Another assay concerns the target CD81 (UniProt P60033). Nature of the assay: cell-based or functional assay.
As to “HCV 1a E2 with alanine substitution at 420 (from UniProt P27958 384-746)”, the reduction in viral infectivity, mutant 1a HCVpp (luciferase) was greater than 95%. Turning to “HCV 1a E2 with alanine substitution at 616 (from UniProt P27958 384-746)”, the reduction in viral infectivity, mutant 1a HCVpp (luciferase) was greater than 95%. “HCV 1a E2 with alanine substitution at 428 (from UniProt P27958 384-746)”: the reduction in viral infectivity, mutant 1a HCVpp (luciferase) stood at 84%. Consider “HCV 1a E2 with alanine substitution at 613 (from UniProt P27958 384-746)”, for which the reduction in viral infectivity, mutant 1a HCVpp (luciferase) is greater than 95%. The substance “HCV 1a E2 with alanine substitution at 429 (from UniProt P27958 384-746)” yielded a reduction in viral infectivity, mutant 1a HCVpp (luciferase) greater than 95%. Turning to “HCV 1a E2 with alanine substitution at 443 (from UniProt P27958 384-746)”, the reduction in viral infectivity, mutant 1a HCVpp (luciferase) amounted to 79%. Consider “HCV 1a E2 with alanine substitution at 446 (from UniProt P27958 384-746)”, for which the reduction in viral infectivity, mutant 1a HCVpp (luciferase) amounted to 60%. “HCV 1a E2 with alanine substitution at 441 (from UniProt P27958 384-746)” displayed a reduction in viral infectivity, mutant 1a HCVpp (luciferase) greater than 95%. Consider “HCV 1a E2 with alanine substitution at 442 (from UniProt P27958 384-746)”, for which the reduction in viral infectivity, mutant 1a HCVpp (luciferase) is greater than 95%. Take “HCV 1a E2 with alanine substitution at 437 (from UniProt P27958 384-746)”: the reduction in viral infectivity, mutant 1a HCVpp (luciferase) is greater than 95%.

The target in a further assay is E2 of genotype 1a HCVcc (hepatitis C virus genotype 1a). Nature of the assay: cell-based or functional assay.
In turn, CBH-5 (antibody) had a 50% inhibition, neutralization of 1a HCVcc greater than 100 µg/mL.
